Assay [1] concerns the target T1, gp130 (on C2C12 myoblasts) (UniProt Q00560 23-917, limits assumed).
T1 sequence (looked up): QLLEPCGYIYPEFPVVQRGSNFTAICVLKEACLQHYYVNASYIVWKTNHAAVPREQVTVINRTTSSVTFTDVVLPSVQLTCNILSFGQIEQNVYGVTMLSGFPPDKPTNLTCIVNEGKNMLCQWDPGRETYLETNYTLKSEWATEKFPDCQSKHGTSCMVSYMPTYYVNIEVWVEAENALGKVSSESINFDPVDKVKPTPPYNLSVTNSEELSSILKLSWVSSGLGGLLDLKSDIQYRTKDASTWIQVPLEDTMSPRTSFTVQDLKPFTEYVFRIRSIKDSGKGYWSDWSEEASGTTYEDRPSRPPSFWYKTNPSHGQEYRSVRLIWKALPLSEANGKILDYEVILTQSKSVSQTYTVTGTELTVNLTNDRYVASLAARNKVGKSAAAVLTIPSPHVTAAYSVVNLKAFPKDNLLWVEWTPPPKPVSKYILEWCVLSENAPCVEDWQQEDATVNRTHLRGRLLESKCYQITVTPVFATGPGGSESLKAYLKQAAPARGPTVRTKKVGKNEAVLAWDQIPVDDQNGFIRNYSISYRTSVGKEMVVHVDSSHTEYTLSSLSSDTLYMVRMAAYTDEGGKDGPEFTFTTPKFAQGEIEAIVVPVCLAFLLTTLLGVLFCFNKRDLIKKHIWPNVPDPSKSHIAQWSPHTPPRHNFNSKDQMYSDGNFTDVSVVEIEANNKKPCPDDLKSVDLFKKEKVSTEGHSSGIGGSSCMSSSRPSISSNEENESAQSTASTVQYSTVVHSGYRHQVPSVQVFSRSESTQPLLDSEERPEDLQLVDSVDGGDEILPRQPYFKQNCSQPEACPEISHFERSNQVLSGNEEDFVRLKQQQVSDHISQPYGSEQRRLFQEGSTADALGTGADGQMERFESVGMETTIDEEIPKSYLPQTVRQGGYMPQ
As to the kind of experiment: cell-based or functional assay.

Assay [2] addresses gp130 (on C2C12 myoblasts) (UniProt Q00560). Briefly: cell-based or functional assay.

Changes are numbered by the printed parent chain.

B1: wild type human cardiotrophin-1 (CT-1) polypeptide, FTV370 (ligand)
chain: SRREGSLEDPQTDSSVSLLPHLEAKIRQTHSLAHLLTKYAEQLLQEYVQLQGDPFGLPSFSPPRLPVAGLSAPAPSHAGLPVHERLRLDAAALAALPPLLDAVCRRQAELNPRAPRLLRRLEDAARQARALGAAVEALLAALGAANRGPRAEPPAATASAASATGVFPAKVLGLRVCGLYREWLSRTEGDLGQLLPGGSA
Take B1: in assay [1], the “EC50, Stat3 phosphorylation in C2C12 cells (western blot densitometry)” value is approximately 1 ng/mL.

B2: FTV381, human CT-1 variant retaining cysteine 105 with cysteine 178 replaced (ligand)
chain: MSRREGSLEDPQTDSSVSLLPHLEAKIRQTHSLAHLLTKYAEQLLQEYVQLQGDPFGLPSFSPPRLPVAGLSAPAPSHAGLPVHERLRLDAAALAALPPLLDAVCRRQAELNPRAPRLLRRLEDAARQARALGAAVEALLAALGAANRGPRAEPPAATASAASATGVFPAKVLGLRVSGLYREWLSRTEGDLGQLLPGGSA
As to B2, in assay [2], the EC50, Stat3 phosphorylation in C2C12 cells (western blot densitometry) is 2 to 5 ng/mL and the mean EC50, Stat3 phosphorylation in C2C12 cells is 2.5 ng/mL.

B3: FTV380, human CT-1 variant with cysteine 105 mutated to serine (ligand)
chain: B2 chain with C105S, S178C
The molecule B3 yielded an EC50, Stat3 phosphorylation in C2C12 cells (western blot densitometry) in assay [2] of 0.35 ng/mL.

B4: FTV384, human CT-1 variant with both natural cysteines replaced with serines and an additional cysteine at its carboxyl terminus (ligand)
chain: MSRREGSLEDPQTDSSVSLLPHLEAKIRQTHSLAHLLTKYAEQLLQEYVQLQGDPFGLPSFSPPRLPVAGLSAPAPSHAGLPVHERLRLDAAALAALPPLLDAVSRRQAELNPRAPRLLRRLEDAARQARALGAAVEALLAALGAANRGPRAEPPAATASAASATGVFPAKVLGLRVSGLYREWLSRTEGDLGQLLPGGSAC
Regarding B4, in assay [2], the EC50, Stat3 phosphorylation in C2C12 cells (western blot densitometry) was found to be 4 ng/mL and the mean EC50, Stat3 phosphorylation in C2C12 cells was determined as 5 ng/mL.

For the origin of these results see patent US20140171625A1 (FATE THERAPEUTICS, published 2014).
